± gives the standard deviation of the averaged measurements.
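Further: ATP exposure 15 min at 22 °C before imaging.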

The test system of this data set is ATP. The experiment in a line: switch fluorescence ratio, 500 uM ATP over buffer (Cy3 cluster intensity, sum of 5 cycles each) (fold (ratio)); higher = stronger signal-on switching upon ATP binding; sequences stand for … in TCGTCGGCAGCGTCAGATGTGTATAAGAGACAGTTTTTTTTTTTTTTTTTTTTTTTTT…TC. To be noted: aptamer strand: ATP DNA aptamer (quencher-CACCTGGGGGAGTATTGCGGAGGAAGG + anchor), 100 nM annealed; ATP concentration: 500 uM. A digest of the protocol: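 Switching-strand clusters labelled with Cy3 on a modified Illumina MiSeq flow-cell were annealed to 100 nM quencher-labelled ATP aptamer, imaged in selection buffer, and re-imaged after 15 min with 500 uM ATP at 22 °C. This was done over five cycles with NaOH stripping and re-annealing in between. The fluorescence ratio is summed target-cycle over summed buffer-cycle Cy3 intensity per cluster, averaged per switch-domain sequence, excluding clusters outside 100-1000 RFU.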
Consider TCACGGCTGG, for which the switch fluorescence ratio was determined as 0.971 ± 0.029.
The value for TAAAGATTTT was 1.01 ± 0.041; that for TCCAGGCGTA was 1.021 ± 0.0089.
For the sequence CCTTCGTTGT, the switch fluorescence ratio worked out at 2.85 ± 0.64.
Turning to AAAGGATTTA, the switch fluorescence ratio was 1.02 ± 0.061.
On to AAAAACAGGT, for which the switch fluorescence ratio is 1.02 ± 0.013.
Take AACCTGGGCC: the switch fluorescence ratio amounted to 1.19 ± 0.099.
For the sequence TCGCAGTTTC, the switch fluorescence ratio came to 1.7002 ± 0.00038.
With TGGGGTCCGG, the switch fluorescence ratio is 0.97 ± 0.079.
In the case of GGGGGGGTTC, the switch fluorescence ratio is 1 ± 0.028.
As to GGGGTTCATC, the switch fluorescence ratio came out at 0.995 ± 0.022.
With GGGGGTTGAG, the switch fluorescence ratio came out at 1.03 ± 0.024.
With TATTTGTCGG, the switch fluorescence ratio was 1.0172 ± 0.00047.
In the case of TTACGTCATA, the switch fluorescence ratio came out at 1.67 ± 0.95.
As for GAGGGATTTG, the figure is 1 ± 0.03; as for CCTGCTTTTT, 1.02 ± 0.021.
As for TTTATGAAAA, the figure is 1.025 ± 0.0066; as for TTATAACTCA, 0.997 ± 0.034.
Take ACTCATTCGG: the switch fluorescence ratio is 1.01 ± 0.015.
As to TAGCTGAGAC, the switch fluorescence ratio came to 1.162 ± 0.006.
Consider AGGGATAGAT, for which the switch fluorescence ratio was 0.99 ± 0.026.
In the case of TCATTTTTGG, the switch fluorescence ratio is 1 ± 0.012.
On to TTAGAATTAA, for which the switch fluorescence ratio amounted to 0.9724 ± 0.0063.
Turning to TAGGTCTTGC, the switch fluorescence ratio is 1.01 ± 0.033.
For AGAGATTTAT, the switch fluorescence ratio turned out to be 0.988 ± 0.019.
The value for TTATTTTCAT was 1 ± 0.025; that for CTGGTGTGGA was 1.034 ± 0.0058; that for CACGTATTGG was 1.11 ± 0.017.
Take GGTGGCATGT: the switch fluorescence ratio was 0.997 ± 0.054.
With GCCAGGCATT, the switch fluorescence ratio was determined as 0.989 ± 0.05.
On to GGGTAGGCGC, for which the switch fluorescence ratio is 1.04 ± 0.029.
Turning to AATTTGTTAG, the switch fluorescence ratio is 0.985 ± 0.018.
As for TTTAGGACTT, the switch fluorescence ratio amounted to 0.994 ± 0.021.
For the sequence TCATTTATCA, the switch fluorescence ratio was determined as 1 ± 0.053.
Regarding CCGGGAGGGG, the switch fluorescence ratio turned out to be 1.11 ± 0.12.
As to TAGTTGGGCT, the switch fluorescence ratio worked out at 0.961 ± 0.032.
For the sequence CCAAATTGGG, the switch fluorescence ratio came to 1.016 ± 0.0048.
The value for GAAGGTATTT was 0.9517 ± 0.0056.
Regarding CGTTATTGAG, the switch fluorescence ratio is 0.95 ± 0.016.
Consider GATTATATAT, for which the switch fluorescence ratio came out at 0.986 ± 0.015.
The value for TTGCTATGTG was 0.979 ± 0.015.
As for GACGTTTTGG, the switch fluorescence ratio is 0.997 ± 0.025.
As for GGAGAAATGT, the switch fluorescence ratio was 0.998 ± 0.011.
The value for ATAAGCGTGG was 0.995 ± 0.082.
For the sequence TAGATATGAG, the switch fluorescence ratio amounted to 1.009 ± 0.0012.
Regarding TTGGGGAGTA, the switch fluorescence ratio came out at 0.9929 ± 0.0089.
As for TAACACATTT, the switch fluorescence ratio stood at 0.98 ± 0.059.
GGGGGATCGT: the switch fluorescence ratio amounted to 1.02 ± 0.035.
For TTTTTCTCTT, the switch fluorescence ratio was 0.996 ± 0.021.
On to GATGATTCGG, for which the switch fluorescence ratio came to 0.984 ± 0.037.
The value for CATTTCAGG was 1.05 ± 0.033; that for TGAAATTTAA was 1 ± 0.0065; that for TCAGTTTATG was 0.961 ± 0.011.
The value for TGTTTTTGGG was 0.989 ± 0.029; that for ACTAGGTGTG was 1.04 ± 0.013.
As for ACTTAGTCCA, the figure is 1.03 ± 0.034; as for TTTATCAGTG, 0.987 ± 0.031; as for ATTTTAGGGG, 0.983 ± 0.035.
As for CAGATGGACG, the switch fluorescence ratio stood at 0.968 ± 0.032.
Turning to ATATAGGTTT, the switch fluorescence ratio came to 1.01 ± 0.0081.
In the case of ATTATATTTA, the switch fluorescence ratio was 1.02 ± 0.028.
As to TTTTTATGGG, the switch fluorescence ratio amounted to 1.03 ± 0.077.
With AATCGGAGCA, the switch fluorescence ratio was determined as 1.349 ± 0.0071.
For TTAAGGCCGG, the switch fluorescence ratio was determined as 1.03 ± 0.025.
In the case of TGGGGATTCT, the switch fluorescence ratio stood at 0.976 ± 0.0054.
Consider GTACTGTCTC, for which the switch fluorescence ratio stood at 0.9929 ± 0.0049.
The value for CAAGGAGTCT was 1.02 ± 0.035.
Consider GGTAAATAAG, for which the switch fluorescence ratio was determined as 0.961 ± 0.018.
On to TAAACGCGTA, for which the switch fluorescence ratio came out at 0.998 ± 0.029.
For GTGGGGTTGT, the switch fluorescence ratio worked out at 0.973 ± 0.022.
The value for GCGTTGCATT was 1 ± 0.017; that for TTCGCTTTTT was 0.991 ± 0.032; that for AGATTTCATA was 0.985 ± 0.02.
As to CGAACGTCAG, the switch fluorescence ratio was found to be 1.04 ± 0.012.
For AGCGGTTATT, the switch fluorescence ratio amounted to 1.004 ± 0.0044.
As to GCCCGGATTT, the switch fluorescence ratio is 1 ± 0.047.
GAGGTACGGG: the switch fluorescence ratio is 0.98966 ± 0.00039.
In the case of GATTGAGAGC, the switch fluorescence ratio amounted to 0.9928 ± 0.005.
For ACATAATGCC, the switch fluorescence ratio amounted to 0.933 ± 0.047.

(Values after the supplement of paper PMC10126150.)
